Experimental findings from PMC4204775 (Human Molecular Genetics, 2014) are described below.

The target of data set [1] is T1, AGT-Ma (S81L-Ma homodimer) (Homo sapiens, UniProt P21549, S81L).
T1 sequence (P21549 1-392 S81L): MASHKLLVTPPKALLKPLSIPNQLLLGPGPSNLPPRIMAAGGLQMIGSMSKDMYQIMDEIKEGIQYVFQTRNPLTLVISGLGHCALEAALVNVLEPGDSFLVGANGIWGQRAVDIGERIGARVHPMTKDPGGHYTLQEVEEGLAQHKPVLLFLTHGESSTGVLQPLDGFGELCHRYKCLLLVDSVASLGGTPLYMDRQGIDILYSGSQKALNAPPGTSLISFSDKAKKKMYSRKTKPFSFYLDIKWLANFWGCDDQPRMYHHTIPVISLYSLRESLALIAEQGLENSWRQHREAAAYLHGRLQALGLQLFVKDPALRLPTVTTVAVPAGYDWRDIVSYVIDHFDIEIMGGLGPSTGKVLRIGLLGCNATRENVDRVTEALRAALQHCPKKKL
Kind of data set: CD signal change at […] nm on PLP titration of apoenzyme. It is filed as binding.

Substrate in data set [2]: C[C@H](N)C(=O)O
Kind of data set: pyruvate formation, lactate dehydrogenase-coupled spectrophotometric assay. It is filed as biochemical, Homo sapiens. The conditions noted are these: saturating glyoxylate, 200 μM PLP, 100 mM potassium phosphate, 25°C.

Substrate in data set [3]: O=CC(=O)O
The data set is described as above. It is filed as biochemical, Homo sapiens. Conditions: saturating L-alanine, 200 μM PLP, 100 mM potassium phosphate, 25°C.

For orientation: Kd means the constant that tells how readily two partners part at equilibrium. Higher therefore signals weaker binding. As for `Cc1ncc(COP(=O)(O)O)c(C=O)c1O` [PLP], in data set [1], the Kd turned out to be 17 ± 3 µM.

B1: AGT-Ma (S81L-Ma homodimer) (Homo sapiens; S81L) (protein)
chain: MASHKLLVTPPKALLKPLSIPNQLLLGPGPSNLPPRIMAAGGLQMIGSMSKDMYQIMDEIKEGIQYVFQTRNPLTLVISGLGHCALEAALVNVLEPGDSFLVGANGIWGQRAVDIGERIGARVHPMTKDPGGHYTLQEVEEGLAQHKPVLLFLTHGESSTGVLQPLDGFGELCHRYKCLLLVDSVASLGGTPLYMDRQGIDILYSGSQKALNAPPGTSLISFSDKAKKKMYSRKTKPFSFYLDIKWLANFWGCDDQPRMYHHTIPVISLYSLRESLALIAEQGLENSWRQHREAAAYLHGRLQALGLQLFVKDPALRLPTVTTVAVPAGYDWRDIVSYVIDHFDIEIMGGLGPSTGKVLRIGLLGCNATRENVDRVTEALRAALQHCPKKKL
The term kcat denotes the maximal rate divided by the concentration of active sites. The Km is the concentration of substrate that gives half-maximal velocity. Consider B1, for which, in data set [2], the kcat amounted to 13.9 ± 0.9 s⁻¹. Further, in data set [3], the Km was found to be 160 ± 20 µM and the kcat is 13.9 ± 0.9 s⁻¹.
